Laboratory results published in patent publication US20050244862A1.

How the values were obtained:
Assay in all cases: cell-based or functional assay
ETA endothelin receptor = target: T1, ETA endothelin receptor
T1 sequence (P25101 whole entry, species assumed, looked up): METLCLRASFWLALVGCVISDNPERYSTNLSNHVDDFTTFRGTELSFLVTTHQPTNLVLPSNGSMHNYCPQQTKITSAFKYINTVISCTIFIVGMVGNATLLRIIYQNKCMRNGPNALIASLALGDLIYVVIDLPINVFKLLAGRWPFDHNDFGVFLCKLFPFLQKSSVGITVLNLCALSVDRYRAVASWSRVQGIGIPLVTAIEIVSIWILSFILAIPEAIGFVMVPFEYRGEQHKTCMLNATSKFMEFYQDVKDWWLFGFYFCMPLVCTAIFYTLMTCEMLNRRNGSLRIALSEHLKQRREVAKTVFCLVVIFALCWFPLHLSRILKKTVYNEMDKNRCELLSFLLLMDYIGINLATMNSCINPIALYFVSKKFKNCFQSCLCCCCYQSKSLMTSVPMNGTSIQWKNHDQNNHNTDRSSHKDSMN

ETB endothelin receptor = target: ETB endothelin receptor
Sequence of ETB endothelin receptor (P24530 whole entry): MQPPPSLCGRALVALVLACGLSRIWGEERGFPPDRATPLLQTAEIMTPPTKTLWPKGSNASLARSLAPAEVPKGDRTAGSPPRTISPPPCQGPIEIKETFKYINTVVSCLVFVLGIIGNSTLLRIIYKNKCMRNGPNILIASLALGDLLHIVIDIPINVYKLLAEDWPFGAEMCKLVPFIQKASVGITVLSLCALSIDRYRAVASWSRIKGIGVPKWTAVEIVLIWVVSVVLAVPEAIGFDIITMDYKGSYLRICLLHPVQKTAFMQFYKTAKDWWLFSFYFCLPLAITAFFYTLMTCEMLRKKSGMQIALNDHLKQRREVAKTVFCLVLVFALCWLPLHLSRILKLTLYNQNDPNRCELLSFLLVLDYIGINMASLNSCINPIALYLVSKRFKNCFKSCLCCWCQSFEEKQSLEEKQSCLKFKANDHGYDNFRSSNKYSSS

NK2 tachykinin receptor = NK2 tachykinin receptor (UniProt P21452)
Sequence of NK2 tachykinin receptor (P21452 whole entry): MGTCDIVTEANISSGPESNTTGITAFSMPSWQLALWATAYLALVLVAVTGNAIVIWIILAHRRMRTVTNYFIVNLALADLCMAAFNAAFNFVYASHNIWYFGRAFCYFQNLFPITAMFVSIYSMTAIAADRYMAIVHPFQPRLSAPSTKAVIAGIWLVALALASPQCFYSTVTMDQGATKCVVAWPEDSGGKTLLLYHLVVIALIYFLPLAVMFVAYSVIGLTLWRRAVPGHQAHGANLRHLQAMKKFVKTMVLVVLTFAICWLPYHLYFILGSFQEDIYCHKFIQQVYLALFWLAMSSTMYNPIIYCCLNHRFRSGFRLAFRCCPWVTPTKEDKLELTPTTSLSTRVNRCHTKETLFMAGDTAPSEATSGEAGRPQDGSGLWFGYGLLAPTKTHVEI

NK3 tachykinin receptor = target: T2, NK3 tachykinin receptor (UniProt P29371)
T2 sequence (looked up): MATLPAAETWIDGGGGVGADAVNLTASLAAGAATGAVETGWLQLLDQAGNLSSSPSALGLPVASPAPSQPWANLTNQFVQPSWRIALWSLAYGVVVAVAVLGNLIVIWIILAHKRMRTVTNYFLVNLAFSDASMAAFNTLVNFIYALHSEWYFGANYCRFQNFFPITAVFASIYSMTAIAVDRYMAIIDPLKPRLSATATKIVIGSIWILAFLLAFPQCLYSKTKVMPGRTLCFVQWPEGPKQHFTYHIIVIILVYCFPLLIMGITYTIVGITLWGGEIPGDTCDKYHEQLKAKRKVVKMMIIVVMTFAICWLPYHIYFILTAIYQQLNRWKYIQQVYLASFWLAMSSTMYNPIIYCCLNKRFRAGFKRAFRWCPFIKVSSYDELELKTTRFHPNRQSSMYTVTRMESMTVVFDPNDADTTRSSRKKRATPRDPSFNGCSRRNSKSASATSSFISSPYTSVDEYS

NK1 tachykinin receptor = NK1 tachykinin receptor (UniProt P25103)
Sequence of NK1 tachykinin receptor (P25103 whole entry): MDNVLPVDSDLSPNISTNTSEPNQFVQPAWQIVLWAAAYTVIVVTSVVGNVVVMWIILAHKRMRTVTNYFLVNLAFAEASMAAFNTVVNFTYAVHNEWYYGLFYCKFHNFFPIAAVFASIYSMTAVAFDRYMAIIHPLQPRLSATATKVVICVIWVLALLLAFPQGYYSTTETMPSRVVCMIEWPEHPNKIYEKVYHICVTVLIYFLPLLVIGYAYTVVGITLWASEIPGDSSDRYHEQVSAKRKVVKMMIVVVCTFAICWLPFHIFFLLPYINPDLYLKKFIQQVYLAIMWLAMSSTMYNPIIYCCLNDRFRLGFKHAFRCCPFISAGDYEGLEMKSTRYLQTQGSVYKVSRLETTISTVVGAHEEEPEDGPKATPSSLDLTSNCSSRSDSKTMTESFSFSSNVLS

[1] = target: human trk A receptor (human) (UniProt P04629)
Sequence of human trk A receptor (human) (P04629 33-796): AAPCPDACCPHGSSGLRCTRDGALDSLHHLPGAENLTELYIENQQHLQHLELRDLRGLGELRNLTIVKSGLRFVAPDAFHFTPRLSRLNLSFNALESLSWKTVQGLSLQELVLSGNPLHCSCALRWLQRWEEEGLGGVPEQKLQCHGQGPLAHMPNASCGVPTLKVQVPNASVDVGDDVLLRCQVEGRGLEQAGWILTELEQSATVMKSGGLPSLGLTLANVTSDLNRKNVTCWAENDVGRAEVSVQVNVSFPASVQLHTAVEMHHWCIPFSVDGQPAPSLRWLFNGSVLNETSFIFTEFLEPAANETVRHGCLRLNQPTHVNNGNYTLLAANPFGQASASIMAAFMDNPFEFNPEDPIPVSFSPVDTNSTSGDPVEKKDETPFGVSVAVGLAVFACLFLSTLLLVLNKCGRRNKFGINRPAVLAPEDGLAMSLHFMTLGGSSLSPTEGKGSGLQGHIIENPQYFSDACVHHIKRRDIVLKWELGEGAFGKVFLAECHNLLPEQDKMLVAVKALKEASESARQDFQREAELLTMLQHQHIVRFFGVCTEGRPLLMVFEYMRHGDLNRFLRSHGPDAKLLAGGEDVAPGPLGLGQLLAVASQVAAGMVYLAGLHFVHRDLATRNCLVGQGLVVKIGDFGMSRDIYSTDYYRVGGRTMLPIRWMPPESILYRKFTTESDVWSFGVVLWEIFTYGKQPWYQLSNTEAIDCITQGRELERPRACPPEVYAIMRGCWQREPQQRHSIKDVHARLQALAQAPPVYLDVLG

trk C receptor subtype = target: trk C receptor subtype

B1: ET-3 (peptide, UniProt P14138 97-117, looked up)
peptide: CTCFTYKDKECVYYCHLDIIW
An EC50, amplification assay (β-galactosidase), Single Receptor Format (ETA endothelin receptor) of 2.1 nM and an EC50, amplification assay (β-galactosidase), Single Receptor Format (ETB endothelin receptor) of 0.14 nM were found for B1 in this work.

B2: neurokinin B (peptide, UniProt Q9UHF0 81-90, looked up)
peptide: DMHDFFVGLM
An EC50, amplification assay (β-galactosidase), Single Receptor Format (NK2 tachykinin receptor) of 1.3 nM, an EC50, amplification assay (β-galactosidase), Single Receptor Format (NK3 tachykinin receptor) of 100 nM and an EC50, amplification assay (β-galactosidase), Single Receptor Format (NK1 tachykinin receptor) of 99 nM were found for B2 in this work.

B3: neutrotrophic factor NT3 (ligand, UniProt P20783 139-257, looked up)
chain: YAEHKSHRGEYSVCDSESLWVTDKSSAIDIRGHQVTVLGEIKTGNSPVKQYFYETRCKEARPVKNGCRGIDDKHWNSQCKTSQTYVRALTSENNKLVGWRWIRIDTSCVCALSRKIGRT
An EC50, amplification assay (β-galactosidase), Single Receptor Format [1] greater than 1000 ng/mL and an EC50, amplification assay (β-galactosidase), Single Receptor Format (trk C receptor subtype) of 2.4 ng/mL were found for B3 in this work.

B4: ET-2 (peptide, UniProt P20800 49-69, looked up)
peptide: CSCSSWLDKECVYFCHLDIIW
An EC50, amplification assay (β-galactosidase), Single Receptor Format (ETA endothelin receptor) of 16 nM was found for B4 in this work.
